Results reported in publication PMC8699718, “A structurally conserved site in AUP1 binds the E2 enzyme UBE2G2 and is essential for ER-associated degradation” (PLoS Biology, 2021).

Biological target: T1, gp78 RING (Homo sapiens, UniProt Q9UKV5)
T1 construct: The gp78-RING construct (aa 313 to 393) was generated by inserting a stop codon; GST (pGEX-4T-2 vector) (N); made in house
Assay: NMR titration (1H-15N HSQC CSP) of 15N-UBE2G2 with or without G2BR with gp78 RING
Type: binding
Settings: overall value; 15N-UBE2G2 150 μM, gp78 RING 0-450 μM, 50 mM Tris-Cl pH 7.0, 0.5 mM TCEP, 100 μM zinc sulfate, 0.05% sodium azide; G2BR 1:1.1 where present; read-out: affinity for gp78 RING (Kd) by NMR CSP
Method: Fig 5 Titration of UBE2G2:G2BR with gp78 RING. Superposition of ^15N-^1H^N HSQC NMR spectra for apo-UBE2G2 and UBE2G2 bound to G2BR^AUP1 (A) or G2BR^gp78 (B). Spectra for UBE2G2 (150 μM) bound to G2BR were acquired at a 1:1.1 ratio. (C) Superposition of the spectra for apo-UBE2G2, UBE2G2:G2BR^AUP1, and UBE2G2:G2BR^gp78, illustrating the equivalence of perturbations between G2BR^AUP1 and G2BR^gp78. (D) Expansion of overlaid resonances corresponding to UBE2G2 residues showing fast exchange binding kinetics for gp78 RING binding to both UBE2G2:G2BR^AUP1 (left panels) and UBE2G2:G2BR^gp78 (right panels). Spectra were acquired at ratios of RING to UBE2G2:G2BR of 0, 0.33, 0.67, 1.0, 2.0, and 3.0. […]
UBE2G2 and gp78 RING used in titration experiments were expressed and purified as previously described. […] The changes in chemical shift for each peak in the 2D spectrum upon gp78 RING binding was calculated using the following CSP equation: ΔCSP=(ΔδN/5)^2+(ΔδH)^2/2 (1)
The CSPs calculated from Eq 1 were plotted versus the molar ratio of gp78 RING to UBE2G2:G2BR, and the data were fit using the following equation to calculate the dissociation constant (Kd), where x is the ligand-to-protein ratio: ΔCSP=ΔCSPmax/2*1+x+Kd/P−(1+x+Kd)^2/P−4x (2)

T1 sequence (Q9UKV5 313-393, one chain of several): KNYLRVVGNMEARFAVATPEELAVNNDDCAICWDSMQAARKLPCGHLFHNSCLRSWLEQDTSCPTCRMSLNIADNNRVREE

Kd: 207 ± 6.4 µM
B1: UBE2G2: ERAD ubiquitin-conjugating enzyme (E2); purified in vitro, N-terminally MYC-tagged in cells (protein)
chain: MAGTALKRLMAEYKQLTLNPPEGIVAGPMNEENFFEWEALIMGPEDTCFEFGVFPAILSFPLDYPLSPPKMRFTCEMFHPNIYPDGRVCISILHAPGDDPMGYESSAERWSPVQSVEKILLSVVSMLAEPNDESGANVDASKMWRDDREQFYKIAKQIVQKSLGL
